# Measurements taken from the supplement of paper PMC10567573.
# B1: SMG5 (parent)
# chain: FVSIAQSEQESLLQQAQAQFRMAQ
# Variants of: B1
# Test: protein stability index of a GFP-peptide fusion (GPS, HEK-293T) (PSI 1-6); higher = more stable
# Conditions: c terminus: a fixed tail appended
# 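Further: lentivirally expressed fusions sorted by FACS into six bins by GFP to DsRed ratio, PSI derived from sequencing read proportions per bin multiplied by bin number.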
row,Variant,protein stability index
1,FVSIAQSEQESLLEQAQAQFRMAQ,2.88
2,FVSIAQSEQESLLWQAQAQFRMAQ,2.52
3,FVSIAQSEQESLLTQAQAQFRMAQ,2.09
4,FVSIAQSEQESLLHQAQAQFRMAQ,2.4
5,FVSIAQSEQESLLLQAQAQFRMAQ,2.4
6,FVSIAQSEQESLLPQAQAQFRMAQ,2.17
7,FVSIAQSEQESLLIQAQAQFRMAQ,2.25
8,FVSIAQSEQESLLYQAQAQFRMAQ,1.7
9,FVSIAQSEQESLLCQAQAQFRMAQ,1.79
10,FVSIAQSEQESLLRQAQAQFRMAQ,2.21
11,FVSIAQSEQESLLKQAQAQFRMAQ,2.79
12,FVSIAQSEQESLLMQAQAQFRMAQ,2.18
13,FVSIAQSEQESLLAQAQAQFRMAQ,2.11
14,FVSIAQSEQESLLSQAQAQFRMAQ,2.54
15,FVSIAQSEQESLLDQAQAQFRMAQ,2.4
16,FVSIAQSEQESLLFQAQAQFRMAQ,1.84
17,FVSIAQSEQESLLGQAQAQFRMAQ,2.77
18,FVSIAQSEQESLLNQAQAQFRMAQ,2.59
19,FVSIAQSEQESLLVQAQAQFRMAQ,1.64
20,FVSIAQSEQESLLQTAQAQFRMAQ,1.59
21,FVSIAQSEQESLLQMAQAQFRMAQ,2.12
22,FVSIAQSEQESLLQNAQAQFRMAQ,2.5
23,FVSIAQSEQESLLQGAQAQFRMAQ,2.55
24,FVSIAQSEQESLLQLAQAQFRMAQ,1.61

row,Variant,protein stability index
1,FVSIAQSEQESLLQFAQAQFRMAQ,1.4
2,FVSIAQSEQESLLQVAQAQFRMAQ,2.34
3,FVSIAQSEQESLLQRAQAQFRMAQ,2.44
4,FVSIAQSEQESLLQYAQAQFRMAQ,2.17
5,FVSIAQSEQESLLQHAQAQFRMAQ,2.24
6,FVSIAQSEQESLLQSAQAQFRMAQ,2.27
7,FVSIAQSEQESLLQCAQAQFRMAQ,1.85
8,FVSIAQSEQESLLQKAQAQFRMAQ,2.22
9,FVSIAQSEQESLLQAAQAQFRMAQ,1.44
10,FVSIAQSEQESLLQDAQAQFRMAQ,2.55
11,FVSIAQSEQESLLQWAQAQFRMAQ,2.55
12,FVSIAQSEQESLLQPAQAQFRMAQ,2.28
13,FVSIAQSEQESLLQEAQAQFRMAQ,2.32
14,FVSIAQSEQESLLQIAQAQFRMAQ,2.21
15,FVSIAQSEQESLLQQAQQQFRMAQ,2.04
16,FVSIAQSEQESLLQQAQCQFRMAQ,1.98
17,FVSIAQSEQESLLQQAQSQFRMAQ,2.74
18,FVSIAQSEQESLLQQAQEQFRMAQ,2.48
19,FVSIAQSEQESLLQQAQWQFRMAQ,1.94
20,FVSIAQSEQESLLQQAQNQFRMAQ,3.02
21,FVSIAQSEQESLLQQAQRQFRMAQ,2.54
22,FVSIAQSEQESLLQQAQPQFRMAQ,1.98
23,FVSIAQSEQESLLQQAQVQFRMAQ,1.52
24,FVSIAQSEQESLLQQAQTQFRMAQ,2.3

row,Variant,protein stability index
1,FVSIAQSEQESLLQQAQIQFRMAQ,2.54
2,FVSIAQSEQESLLQQAQKQFRMAQ,2.79
3,FVSIAQSEQESLLQQAQDQFRMAQ,2.37
4,FVSIAQSEQESLLQQAQGQFRMAQ,1.89
5,FVSIAQSEQESLLQQAQFQFRMAQ,1.74
6,FVSIAQSEQESLLQQAQHQFRMAQ,2.19
7,FVSIAQSEQESLLQQAQLQFRMAQ,2.14
8,FVSIAQSEQESLLQQAQYQFRMAQ,2.86
9,FVSIAQSEQESLLQQAQMQFRMAQ,1.7
10,FVSIAQSEQERLLQQAQAQFRMAQ,2.37
11,FVSIAQSEQEYLLQQAQAQFRMAQ,2.04
12,FVSIAQSEQEVLLQQAQAQFRMAQ,1.59
13,FVSIAQSEQECLLQQAQAQFRMAQ,2.56
14,FVSIAQSEQEWLLQQAQAQFRMAQ,1.79
15,FVSIAQSEQEQLLQQAQAQFRMAQ,2.23
16,FVSIAQSEQEELLQQAQAQFRMAQ,2.56
17,FVSIAQSEQELLLQQAQAQFRMAQ,1.99
18,FVSIAQSEQEILLQQAQAQFRMAQ,1.69
19,FVSIAQSEQEGLLQQAQAQFRMAQ,1.2
20,FVSIAQSEQEMLLQQAQAQFRMAQ,1.97
21,FVSIAQSEQEHLLQQAQAQFRMAQ,2.04
22,FVSIAQSEQENLLQQAQAQFRMAQ,2.17
23,FVSIAQSEQEALLQQAQAQFRMAQ,2.4
24,FVSIAQSEQETLLQQAQAQFRMAQ,2.63

row,Variant,protein stability index
1,FVSIAQSEQEKLLQQAQAQFRMAQ,2
2,FVSIAQSEQEPLLQQAQAQFRMAQ,2.6
3,FVSIAQSEQEFLLQQAQAQFRMAQ,1.56
4,FVSIAQSEQEDLLQQAQAQFRMAQ,2.46
5,FVSIAQSEQESLLQQGQAQFRMAQ,2.09
6,FVSIAQSEQESLLQQPQAQFRMAQ,1.88
7,FVSIAQSEQESLLQQMQAQFRMAQ,2.2
8,FVSIAQSEQESLLQQDQAQFRMAQ,2.44
9,FVSIAQSEQESLLQQFQAQFRMAQ,2.47
10,FVSIAQSEQESLLQQRQAQFRMAQ,2.53
11,FVSIAQSEQESLLQQIQAQFRMAQ,2.16
12,FVSIAQSEQESLLQQNQAQFRMAQ,2.37
13,FVSIAQSEQESLLQQQQAQFRMAQ,2.55
14,FVSIAQSEQESLLQQCQAQFRMAQ,1.36
15,FVSIAQSEQESLLQQLQAQFRMAQ,1.73
16,FVSIAQSEQESLLQQHQAQFRMAQ,2.56
17,FVSIAQSEQESLLQQKQAQFRMAQ,1.68
18,FVSIAQSEQESLLQQSQAQFRMAQ,1.94
19,FVSIAQSEQESLLQQVQAQFRMAQ,1.78
20,FVSIAQSEQESLLQQEQAQFRMAQ,2.43
21,FVSIAQSEQESLLQQTQAQFRMAQ,2.69
22,FVSIAQSEQESLLQQWQAQFRMAQ,1.94
